Measured values as given in patent publication US20050123546A1 (Hoffmann-La Roche, published 2005).
Residue numbers refer to the chain shown, from its start. Values belong to the binder of their own block, whether it stands above or below them.

Target: T1, human CD20 (human, UniProt P11836 1-297)
T1 construct: whole, on cells; also called human CD20 antigen; Bp35
T1 sequence (looked up): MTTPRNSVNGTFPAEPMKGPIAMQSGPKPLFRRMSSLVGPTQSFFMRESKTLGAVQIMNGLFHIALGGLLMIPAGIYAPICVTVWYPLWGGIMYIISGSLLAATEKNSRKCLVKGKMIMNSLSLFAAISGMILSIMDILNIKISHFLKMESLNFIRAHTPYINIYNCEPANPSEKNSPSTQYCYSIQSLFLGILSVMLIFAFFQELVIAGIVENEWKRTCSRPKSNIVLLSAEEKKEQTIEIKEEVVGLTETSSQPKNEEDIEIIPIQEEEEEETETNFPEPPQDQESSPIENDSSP
Experiment: flow cytometry on Raji cells
Procedure: 500.000 in 180 μl FACS buffer (PBS containing 2% FCS and 5 mM EDTA) were transferred to 5 ml polystyrene tubes and 20 ul 10 fold concentrated anti-CD20 antibody samples (1-5000 ng/ml final concentration) or PBS only were added and the tubes were incubated at 4° C. for 30 min. Subsequently, samples were washed twice with FACS buffer and pelleted at 300×g for 3 min. Supernatant was aspirated off and cells were taken up in 100 μl FACS buffer and 1 μl anti-Fc-specific F(ab′)₂—FITC fragments (Jackson Immuno Research Laboratories, USA) was added and the tubes were incubated at 4° C. for 30 min. Samples were washed twice with FACS buffer and taken up in 500 μl of FACS buffer containing 0.5 μg/ml PI for analysis by Flow Cytometry. Binding was determined by plotting the geometric mean fluorescence against the antibody concentrations.

B1: chimeric B-Ly1 antibody chB-Ly1 (antibody, V domains shown)
VH: EVKLQQSGPELVKPGASVKISCKASGYAFSYSWMNWVKLRPGQGLEWIGRIFPGDGDTDYNGKFKGKATLTADKSSNTAYMQLTSLTSVDSAVYLCARNVFDGYWLVYWGQGTLVTVSA
VL: DIVLTQTTNPVTLGTSASISCRSSKSLLHSNGITYLYWYLQKPGQSPQLLIYQMSNLVSGVPDRFSSSGSGTDFTLRISRVEAEDVGVYYCAQNLELPYTFGGGTKLEIKR
notes: also called parental antibody B-Ly1; copies: 2 + 2
binding result: binds

B2: B-HH1 complexed with the humanized B-Ly1 light chain (KV1) (antibody, human IgG1, V domains shown)
VH: QVQLVQSGAEVKKPGSSVKVSCKASGYTFSYSWMSWVRQAPGQGLEWMGRIFPGDGDTDYAQKFQGRVTITADKSTSTAYMELSSLRSEDTAVYYCARNVFDGYWLVYWGQGTLVTVSS
VL: DIVMTQTPLSLPVTPGEPASISCRSSKSLLHSNGITYLYWYLQKPGQSPQLLIYQMSNLVSGVPDRFSGSGSGTDFTLKISRVEAEDVGVYYCAQNLELPYTFGGGTKVEIKR
notes: also called BHH1-KV1
binding result: binds

B3: B-HH1 (as compared in FIG. 12; light chain not stated) (antibody, V domains shown)
VH: B2 VH
VL: DIVMTQTPLSLPVTPGEPASISCRSSKSLLHSNGITYLYWYLQKPGQSPQLLIYQMSNLVSGVPDRFSGSGSGTDFTLKISRVEAEDVGVYYCAQNLELPYTFGGGTKVEIK
binding intensity/stoichiometry compared to B-Ly1: ~0.5 fold of chB-Ly1

B4: BHL11-KV1 (antibody, human IgG1, V domains shown)
VH: QVQLVESGGGLVKPGGSLRLSCAASGFTFSYSWMNWVRQAPGKGLEWVGRIFPGDGDTDYNGKFKGRVTITADKSTSTAYMELSSLRSEDTAVYYCARNVFDGYWLVYWGQGTLVTVSS
VL: B2 VL
notes: B-HL8 with the single mutation Glu1Gln
binding result: binds

More lines, now with the values ahead:

binding result: binds
B5: BHL8-KV1 (antibody, human IgG1, V domains shown)
VH: B4 VH with Q1E
VL: B2 VL

binding result: binds
B6: BHH2-KV1 humanized IgG1 B-Ly1 anti-human CD20 antibody (non-glycoengineered) (antibody, V domains shown)
VH: B2 VH with T28A, S35N, A61N, Q62G, Q65K
VL: B2 VL
notes: also called BHH2-KV1-wt

binding result: binds
B7: B-HH3 complexed with the humanized B-Ly1 light chain (KV1) (antibody, human IgG1, V domains shown)
VH: B2 VH with T28A, S35N, A61N, Q62G, Q65K, Y95L
VL: B2 VL
notes: also called BHH3-KV1
